From paper PMC4831018 come the findings set out here.

In assay [1] the target is TgVps29-cMyc (Toxoplasma gondii). In words: affinity purification with mass spectrometry; absolute quantification of TgVps35, TgVps26 and TgVps29 in the immunoprecipitates by microLC-SRM with stable isotope-labelled standard peptides, three proteotypic peptides per protein.
Assay [2] has as its target TgVps26-HA (Toxoplasma gondii). Described as above.

TgVps35-HA (natural protein): the stoichiometry N (TgVps35 per TgVps29) in assay [1] is 3. Besides, in assay [2], the stoichiometry N (TgVps35 per TgVps26) came out at 1.
